Assay: yeast display, Sf9 membrane polyspecificity reagent, FACS + sequencing; frameworks hold sequencing errors
In short: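 In a synthetic yeast display library (Saccharomyces cerevisiae BJ5465), nanobody expression was induced with galactose for 36–48 hours. FACS gates were set low and high (top ~1%) using anti-HA fluorescence for expression and streptavidin fluorescence for binding of the Sf9 membrane reagent. Each polyreactivity label is drawn from the gate of origin.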

QVQLVESGGGLVQAGGSLRLSCAASGFIFYKYAMGWYRQAPGKERELVAAITRSGGSTYYADSVKGRFTISRDNAKNTVYLQMNSLKPEDTAVYYCAKRSYRARDAVPGGFDSWGQGTQVTVSS
polyreactivity (PSR sort gate): high polyreactivity

QVQLVESGVGLVQAGGSLRLSCAASGRIFGSYTMGWYRQAPGKERELVAGISRRGGSTYYADSVKGRFTISRDNAKNTVYLQMNSLKPEDTAVYYCAVVSSHYKGPGRNGYDYWGQGTQVTVSS
polyreactivity (PSR sort gate): high polyreactivity

QVQLVESGGGLVQAGGSLRLSCAASGGIFQPNAMGWYRQAPGKERELVASISSDGSTNYADSVKGRFTISRDNAKNTVYLQMTSLKPEDTAVYYCAAAVKRGYAQSFISDGYGYWGQGTQVTVSS
polyreactivity (PSR sort gate): low polyreactivity

QVQLVESGGGLVQAGGSLRLSCAASGSTFSRNAMGWYRQAPGKERELVAAISYRGGSTYYADSVKGRFTISRDNAKNTVYLQMNSLKPEDTAVYYCNADVGWRAPDYGGYDYWGQGTQVTVSS
polyreactivity (PSR sort gate): high polyreactivity

QVQLVESGGGLVQAGGSLSLSCAAYGRTSPIYAMGWYRQAPGKERELVASITRCTRTNYADSVKGRFTISRDNAKNTVYLQMNSLKPEDTAVYYCAAVSYSYSLNAYDYWGQGTQVTVSS
polyreactivity (PSR sort gate): low polyreactivity

QVQLVESGGGLVQAGGSLRLSSAASGRIFRRNTMGWYRQAPGKERELVAAITYSGGSTYYADSVKGRFTISRDNAKNTVYLQMNSLKPEDTAVYYCAADTGFYYWYDYWGQGTQVTVSS
polyreactivity (PSR sort gate): low polyreactivity

QLQLVESGGGLVQAGGSLRLSCAASGRIFVRYAMGWYRQAPGKERELVAAISGRGTSTYYADSVKGRFTISRDNAKNTVYLQMNSLKPEDTAVYDCNTFSQPKWGTSDYDYWGQGTQVTVSS
polyreactivity (PSR sort gate): high polyreactivity

QVQLVESGGGLVQAGGSLRLSCAACGFTFTAYAMVWYRQAPGKERELVAAISYRGGRTNYAYSVKGRFTISRDNAKNTVYLQMNSLKPEDTAVYYCAARPRISTREMDYWRQGTQVTVSS
polyreactivity (PSR sort gate): high polyreactivity

QVQLVESGGGLVQAGGSLRLSCAASGLIFQTYAMGWYRQAPGKERELVATISGSTGGTYYADSVKGRFTISRDNAKNTVYLQMNSLKPEDTAVYYCNASVFQSEYDYWGQGTQVTVSS
polyreactivity (PSR sort gate): low polyreactivity

QVQLVESGGGLVQAGGSLRLSCAASGSTFQDYAMGWYRQAPGKERELVAAISKRGGRTYYADSVKGRFTISRDNAKNTVYLQMNSLKPEETAVYYCNTYPVPGGVTYSYTGFDYWGQGTQVTVSS
polyreactivity (PSR sort gate): high polyreactivity

QVQLVESGGGLVQAGGSLRLSCAASGFTFNGNAMGWYRPAPGKERELVAAITRTGTDTSYADSVKGRFTISRDNAKNTVYLQMNSLKPEDTAVYYCAAPPYNGYRYGTTGYYWGQGTQVTVSS
polyreactivity (PSR sort gate): low polyreactivity

QVHLVESGGGLVQAGGSLRLSCAASGLILPYYAMGWYRQARGKERELVAAISRTGGRTSYADSVKGRFTISRDNAKNTVYLQMNSLKPEDTAVYYCAAVGQSGGRRYDYWGQGTQVTVSS
polyreactivity (PSR sort gate): high polyreactivity

QVQLVESGGGLVQAGGSLRLSCAASGRIFRFNAMGWYRQAPGKERELVAAITSGVRTNYADSVKGRFTISRDNAKNTVYLQMNSLKPEDTAVYYCAASRHYPGYRRYDYWGQGTQVTVSS
polyreactivity (PSR sort gate): high polyreactivity

QVQLVESGGGLVQAGASLRLSCAASGRIFHHNVMGWYIQAPGKERELVAAISQSGGSTYYADSVKGRFTISRDNAKNTVYLQMNSLKPEDTAVYYCNDGAAGRRYNYWGQGTQVTVSS
polyreactivity (PSR sort gate): low polyreactivity

QVQLVESGGGLVQAGGSLRLSCAASGFTFKSYAMGWSRQAPGKERELVAAISRGGSTYYADSVKGRFTISRDNAKNTVYLQMNSLKPEDTAVYYCNKTRYSRSYYEYDYWGQGTQVTVSS
polyreactivity (PSR sort gate): low polyreactivity

QVQLVESGGGLVQAGGSLRLSCAASGSIFGYYAMGWYRQAPGKERELVATITWGGGSTYADSVKGRFTISRDNAKNTVYLQMNSLKPEDTAVYYCNAGYRYTSAQVTWEYDYWGQGTQVTVSS
polyreactivity (PSR sort gate): low polyreactivity

QVQLVESGGGLVQAGGSLRLSCAASGRIFLGHDMGWYRQAPGKERELVATISSSGDSTYYADSVKGRFTISRDNAKNTVYLQMNSLKPEDTAVYYCAVKSTDVPVRGSPYDYWGQGTQVTVSS
polyreactivity (PSR sort gate): low polyreactivity

QVQLVESGGGLVQAGGSLRLSCAASGSIFVGYDMGWYRQAPGKERELVAAISWRGVGTYYADSVKGRCTISRDNAKNTVYLQMNSLKPEDTAVYYCAARWTVPRDSAPSKGYDYWGQGTQVTVSS
polyreactivity (PSR sort gate): low polyreactivity

QVQLVESGGGLVQAGGSLRLSCAASGRIFKSYVMGWYRQATGKERELVAAITRTGGSTYYADSVKGRFTISRDNAKNTVYLQMNSLKPVDTAVYYCNARYSWPRATWYDYWGQGTQVTVSS
polyreactivity (PSR sort gate): high polyreactivity

QVQLVESGGGLVQAGGSLRLSCAASGFIFYIYAMGWYRQAPGKERELVAAISWNGGSTYYADSVKGRFTISRDNAKNTVYLLMNSLKPEDTAVYYCATVARYRYGTGRFDYWGQGTQVTVSS
polyreactivity (PSR sort gate): high polyreactivity

QVQLVESGGGLVQAGGSLRLSCAASGGIPLYYVMGWYRQAPGKERELVADISGDDSTNYADSVKGRFTISRDNAKNTVYLQMNSLKPEDTAVYYCAADGWLWSFTGDGWWFDYWGQGTQVTVSS
polyreactivity (PSR sort gate): low polyreactivity

QVQLVESGGGLVQAGGSHRLSCAASGRILPGYAMGWYRPAPGKERELVAAITTGGSTYYADSVKGRFTISRDNAKNTVYLQMNSLKPEDTAVYYCAKLYSYVGWGGQFDYWGQGTQVTVSS
polyreactivity (PSR sort gate): low polyreactivity

QVQLVESGGGLVQAGGSLRLSCAASGSTFRYYAMGWYRQAPGKERELVAAISGSGGRTYYADSVKGRFTISRDNAKNTVYLQMNSLKPEDTAVYYCAASRYQFYWGQGTQVTVSS
polyreactivity (PSR sort gate): high polyreactivity

QVQLVESGGGLVQAGGRLRLSCAASGRIFYHNAMGWYRQAPGKERELVAAITWSGVSTYYADSVKGRFTISRDNAKNTVYLQMNSLKPEDTAVYYCAKRGRWDWDFNYWGQGTQVTVSS
polyreactivity (PSR sort gate): high polyreactivity

QVQLVESGGGLVQAGGSLRLSCAASGSTFDNYVMGWYRQAPGKERELVAAISRRGGNTYYADSVKGRFTISRDNAKNTVYLQMNSLKPEDTAVYYCAADPYGYGHWGDYWGQGTQVTVSS
polyreactivity (PSR sort gate): low polyreactivity

QVQLVESGGGLVQAGGSLRLSCAASGRTFYVYAMGWYRQAPGKERELVAAISQDDGGTYYADSVKGRFTISRDNAKNTVYLQMNSLKPEDTAVYYCAAKEWRYGYDYGYWGQGTQVTVSS
polyreactivity (PSR sort gate): low polyreactivity

QVQLVESGGGLVQAGGSLRLSCAASGITLVRYAMGWYRQAPGKERELVASITSGASTNYADSVKGRFTISRDNAKNTVYLQMNSLKPEDTAVYYCAAGPPSGGWWGGWYDYWGQGTQVTVSS
polyreactivity (PSR sort gate): high polyreactivity

QVQLVESGGGLVQAGGSLRLSCAASGSTLNVNAMGWYRQAPGKERELVAAITSGGSTYYADSVKGRFTISRDNEKNTVYLQIHSLKPEDTAVYYCNKRRSWRPTYPIGGSGFYYWGQGTQVTVSS
polyreactivity (PSR sort gate): low polyreactivity

QVQLVESGGCLVQSGGSLRLSCAATGSTFGRNAMGWSRQAPGKESELVAAISRGGGITYYADSVKGRFTISRDNAKNTVYFQMNSLKPEDTAVYYCNAYLSKYFRYDYWGQGTQVTVSS
polyreactivity (PSR sort gate): high polyreactivity

QVQLVESGGGLVQARGSLRLSCAASGITFSRNVMGWYRQAPGKERELVAAISRSGGRTYYADSVKGRFTISRDNAKNTVYLQMNSLKPEVTAVYYCNRDIGGTTVLDDYCGQGTQVTVSS
polyreactivity (PSR sort gate): low polyreactivity

QVQHVASGGGIDQAGGSLRLSCAASGFIFSWYALGWYRQAPGKERELVAGISIRGGRTYADSVKGRFTISRDNAKNTVYLQMNSLTPEDTAVYSCATRSYRPYHSLYDYWGQGTQVTVSS
polyreactivity (PSR sort gate): high polyreactivity
